From US10058586B2, “Use of human small leucine zipper protein in adipocyte differentiation procedure” (Korea University Research and Business Foundation, priority 2013, dated 2018)

Tests used:
[1] = target: T1, PPARγ2 (Homo sapiens, UniProt P37231); experiment: His pull-down of purified His-sLZIP with in vitro translated PPARγ2; type: binding; set-up: made in house; host or cells: PPARγ2: TNT in vitro translation system (Promega); His-sLZIP: E. coli BL21, pET-28a(+)
T1 sequence (P37231 1-505): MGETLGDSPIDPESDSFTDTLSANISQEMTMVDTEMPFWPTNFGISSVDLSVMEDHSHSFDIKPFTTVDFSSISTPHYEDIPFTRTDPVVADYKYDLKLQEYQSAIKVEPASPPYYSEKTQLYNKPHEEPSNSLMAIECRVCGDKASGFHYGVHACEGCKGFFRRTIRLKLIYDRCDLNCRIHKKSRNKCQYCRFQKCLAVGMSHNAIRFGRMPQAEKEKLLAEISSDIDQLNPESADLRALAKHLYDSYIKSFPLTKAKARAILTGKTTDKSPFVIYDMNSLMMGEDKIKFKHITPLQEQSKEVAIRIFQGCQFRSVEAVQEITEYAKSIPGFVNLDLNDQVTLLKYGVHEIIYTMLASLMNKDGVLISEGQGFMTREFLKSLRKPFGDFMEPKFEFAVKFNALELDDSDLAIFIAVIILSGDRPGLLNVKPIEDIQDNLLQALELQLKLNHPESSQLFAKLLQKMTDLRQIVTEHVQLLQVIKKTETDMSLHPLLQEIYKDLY
Protocol: sLZIP was cloned into a pET-28a(+) vector. His-sLZIP proteins were expressed in Escherichia coli (E. coli) BL21 cells using a T7 isopropyl-β-D-thiogalactopyranoside (IPTG)-inducible system. IPTG-induced cells were disrupted bysonification and cell lysates were clarified by centrifugation. His-sLZIP proteins were applied onto a nickel-nitrilotriacetic acid bead column (Bio-Rad, Richmond, Calif.). The column was washed with a great volume of a lysis buffer and 10 mM of imidazole, and eluted in a Ni-NTA elution buffer (Bio-Rad Laboratories, Hercules, Calif.). A fraction containing His-sLZIP proteins was dialyzed against 10% glycerol, and stored at −80° C. Protein purification was evaluated according to 10% SDS-PAGE/Coomassie blue staining and a purity of >98% in general was shown.
In order to examine whether the transcriptional activity of PPARγ2 is regulated by interaction with sLZIP, interaction between sLZIP and PPARγ2 was examined. […] A protein complex was analyzed in SDS-PAGE and then immunoblotted with specific antibodies (FIG. 2A). […] Proteins bound to the bead were analyzed in SDS-PAGE, and then immunoblotted with anti-PPARγ2 and anti-His antibodies (FIG. 2C). GFP-PPARγ2 and Flag-sLZIP constructs were expressed in C3H10T1/2 cells, and analyzed using mouse anti-Flag and Texas Red-labeled anti-mouse antibodies under a fluorescence microscope. […]

[2] = target: T1, PPARγ2; experiment: FABP4 promoter luciferase analysis in preadipocytes from epididymal adipose tissues of sLZIP TG mice; type: cell-based, mouse; set-up: expressed in transfected cells; host or cells: primary preadipocytes from epididymal adipose tissue of human-sLZIP transgenic mice; details: adipocytes of sLZIP TG mice vs wild type mice, with or without 10 nM RZD
Excerpt: In order to generate human sLZIP transgenic (TG) mice, sLZIP genes were cloned into a pCMV-flag expression vector. The sLZIP TG mice were generated by Macrogen, Inc (Seoul, Korea). Transgenic founders were mated with wild type C57BL/6 mice to produce F1 heterozygotes. F1-F4 generations were genetically screened for transgenes at an age of 2 weeks old. The following two primers were used to amplify genomic DNA in order to identify wild type and TG mice: [NT] and 5'-[NT]3.' Adipocyte differentiation is a well-regulated procedure. PPARγ2 is a major regulator of adipogenesis, is highly expressed during adipocyte differentiation, and regulates expression of genes involved in adipogenesis. An effect of sLZIP on adipogenesis in vivo was examined. For this purpose, in order to produce human sLZIP transgenic mice, sLZIP genes were cloned in a pCMV-flag expression vector. The sLZIP TG mice were produced in Macrogen, Inc (Seoul, Korea) (FIG. 8A). Preadipocytes were isolated from epididymal adipose tissues of sLZIP TG mice. […] A promoter activity was measured according to luciferase analysis (FIG. 8B). […] Total RNA was extracted from the cells, and an mRNA expression level of mouse LZIPs was measured using RT-PCR analysis. […] Total RNA was isolated from the cells, and an mRNA expression level of mouse LZIPs was measured using RT-PCR (FIG. 9C) and real-time PCR (FIG. 9D).

B1: sLZIP: human small leucine-zipper protein, isoform of LZIP, 354 amino acids, no transmembrane domain; GenBank FJ263669, SEQ ID NO: 1 (protein, listed as Homo sapiens)
chain: MELELDAGDQDLLAFLLEESGDLGTAPDEAVRAPLDWALPLSEVPSDWEVDDLLCSLLSPPASLNILSSSNPCLVHHDHTYSLPRETVSMDLESESCRKEGTQMTPQHMEELAEQEIARLVLTDEEKSLLEKEGLILPETLPLTKTEEQILKRVRRKIRNKRSAQESRRKKKVYVGGLESRVLKYTAQNMELQNKVQLLEEQNLSLLDQLRKLQAMVIEISNKTSSSSMYSSDTRGSLPAEHGVLSRQLRALPSEDPYQLELPALQSEVPKDSTHQWLDGSDCVLQAPGNTSCLLHYMPQAPSAEPPLEWPFPDLFSEPLCRGPILPLQANLTRKGGWLPTGSPSVILQDRYSG
direct interaction with PPARγ2 (His pull-down) [1]: PPARγ2 was directly bound to sLZIP
transcriptional activity of PPARγ2 (luciferase) [2]: decreased in the adipocytes of the sLZIP TG mice more than in wild type mice
